Target: SARS-COV-2 spike protein, ancestral Hu-1, on retroviral pseudotyped virus (SARS-COV-2, UniProt P0DTC2 14-1273)
Assay: cell-based or functional assay

B1: CB6-dIgA2 (dimeric chimeric IgA2 of monoclonal antibody CB6 with J chain) (antibody)
heavy: ASEVQLVESGGGLVQPGGSLRLSCAASGFTVSSNYMSWVRQAPGKGLEWVSVIYSGGSTFYADSVKGRFTISRDNSMNTLFLQMNSLRAEDTAVYYCARVLPMYGDYLDYWGQGTLVTVSSASTKGPSVFPLAPSSKSTSGASPTSPKVFPLSLDSTPQDGNVVVACLVQGFFPQEPLSVTWSESGQNVTARNFPPSQDASGDLYTTSSQLTLPATQCPDGKSVTCHVKHYTNPSQDVTVPCPVPPPPPCCHPRLSLHRPALEDLLLGSEANLTCTLTGLRDASGATFTWTPSSGKSAVQGPPERDLCGCYSVSSVLPGCAQPWNHGETFTCTAAHPELKTPLTANITKSGNTFRPEVHLLPPPSEELALNELVTLTCLARGFSPKDVLVRWLQGSQELPREKYLTWASRQEPSQGTTTFAVTSILRVAAEDWKKGDTFSCMVGHEALPLAFTQKTIDRLAGKPTHVNVSVVMAEVDGTCY
light: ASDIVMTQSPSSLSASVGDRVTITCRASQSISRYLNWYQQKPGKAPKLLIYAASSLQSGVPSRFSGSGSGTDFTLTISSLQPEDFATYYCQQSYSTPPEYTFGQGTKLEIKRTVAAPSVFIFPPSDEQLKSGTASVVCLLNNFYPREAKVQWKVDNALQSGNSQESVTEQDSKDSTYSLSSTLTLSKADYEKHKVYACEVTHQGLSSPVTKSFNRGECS
J chain: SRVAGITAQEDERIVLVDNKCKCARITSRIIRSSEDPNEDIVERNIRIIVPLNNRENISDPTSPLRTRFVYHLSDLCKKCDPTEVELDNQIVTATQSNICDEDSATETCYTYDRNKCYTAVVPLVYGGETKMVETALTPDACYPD
  IC50 of pseudotyped virus entry, fold against the IgG version: 2.5 fold

Source: patent publication US20240288440A1 (MACFARLANE BURNET INSTITUTE FOR MEDICAL RESEARCH AND PUBLIC …, published 2024)
